From article PMC3071809, “Recombinant Complement Receptor 2 Radiolabeled with [^99mTc(CO)3]^+ : A Potential New Radiopharmaceutical for Imaging Activated Complement” (PLoS ONE, 2011) come the findings set out here.

Assay [1] addresses C3d construct with a free exposed thiol (Cys17, corresponding to Cys1010 of full length C3) (human). Put plainly: SPR; Biacore T100, 25°C; C3d immobilised on a CM5 chip by thiol coupling of the free Cys17; rCR2 as analyte; 0.01 M HEPES pH 7.4, 0.15 M NaCl, 3 mM EDTA, 0.005% Tween 20; equilibrium analysis, Langmuir isotherm. (Surface plasmon resonance follows binding to a sensor surface in real time, without labels.)

Assay [2] addresses T1, human C3d protein (Merck) (human, UniProt P01024 1002-1303).
T1 construct: C3d fragment of complement C3, human; also called C3d antigen; immobilized C3d; source: bought: Merck, Darmstadt, Germany
Put plainly: ELISA; C3d coated at two fold concentrations from 1.5 to 1500 nM/well in PBS pH 7.4; rCR2 or C2A at a fixed 1.5 µM in 0.05% BSA-PBS pH 7.4, 1 h, room temperature; detected with anti-His antibody. To be noted: both partners purified. (In general: An ELISA detects its analyte on a solid surface through an enzyme-linked reagent.)

Assay [3] addresses T1, human C3d protein (Merck). Put plainly: radioligand binding; radioactive ELISA: C3d coated on 12 well strips at increasing two fold concentrations, ^99mTc-rCR2 added, wells gamma counted; one site specific binding model Y = Bmax*X/(Kd+X). The note with it: both partners purified.

T1 sequence (P01024 1002-1303): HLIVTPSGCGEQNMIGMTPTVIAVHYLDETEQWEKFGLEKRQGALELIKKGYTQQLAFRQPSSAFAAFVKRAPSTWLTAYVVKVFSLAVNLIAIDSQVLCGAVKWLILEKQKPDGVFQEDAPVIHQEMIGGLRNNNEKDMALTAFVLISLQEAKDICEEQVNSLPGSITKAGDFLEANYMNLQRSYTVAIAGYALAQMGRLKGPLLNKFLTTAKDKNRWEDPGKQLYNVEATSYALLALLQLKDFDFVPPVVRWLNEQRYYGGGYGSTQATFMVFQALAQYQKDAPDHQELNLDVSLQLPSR

B1: recombinant Complement Receptor 2 (rCR2), Short Consensus Repeats 1 and 2 of human CR2 with the C-terminal sequence … (domain or fragment, UniProt P20023 21-154, looked up)
chain: ISCGSPPPILNGRISYYSTPIAVGTVIRYSCSGTFRLIGEKSLLCITKDKVDGTWDKPAPKCEYFNKYSSCPEPIVPGGYKIRGSTPYRHGDSVTFACKTNFSMNGNKSVWCQANNMWGPTRLPTCVSVFPLEC
notes: complement receptor type 2 (CR2, CD21), human, residues 21-154: SCR1, SCR2 and the SCR2 to SCR3 linker VFPLEC; 15.5 kDa; cloned in pET-24a (NdeI/EcoRI); also called recombinant CR2; SCR1/2 fragment; not shown: His6, C-terminal, kept
In assay [1], B1 registered a Kd of 570 nM and a stoichiometry N of 1. The EC50 in assay [2] was roughly 48.5 nM.

B2: ^99mTc-rCR2 (rCR2 radiolabeled with [^99mTc(CO)3]^+ on the His-tag) (domain or fragment, human, UniProt P20023 21-154, looked up)
chain: B1 chain
modifications: [^99mTc(CO)3]^+ on the C-terminal His-tag
notes: complement receptor type 2 (CR2), human, residues 21-154, as m1; m1 with the radiolabel; also called rCR2-Tc^99m; rCR2-[^99mTc(CO)3]; source: labeled with [^99mTc(CO)3(OH2)3]^+ at 37°C; not shown: His6, C-terminal, kept
For B2, the Kd in assay [3] is 25.5 nM.

By Kd is commonly meant the free concentration of one partner at which half of the binding sites on the other are occupied at equilibrium, for simple one-to-one binding. What is called stoichiometry N is the number of molecules, sites or subunits per partner or assembly. What is called EC50 is the concentration needed to bring the measured effect to its halfway point. Higher therefore signals lower potency in that assay.
